Test system: T1, OxyR (Reut_A2805) (Cupriavidus pinatubonensis), ORF:7651349a
T1 sequence: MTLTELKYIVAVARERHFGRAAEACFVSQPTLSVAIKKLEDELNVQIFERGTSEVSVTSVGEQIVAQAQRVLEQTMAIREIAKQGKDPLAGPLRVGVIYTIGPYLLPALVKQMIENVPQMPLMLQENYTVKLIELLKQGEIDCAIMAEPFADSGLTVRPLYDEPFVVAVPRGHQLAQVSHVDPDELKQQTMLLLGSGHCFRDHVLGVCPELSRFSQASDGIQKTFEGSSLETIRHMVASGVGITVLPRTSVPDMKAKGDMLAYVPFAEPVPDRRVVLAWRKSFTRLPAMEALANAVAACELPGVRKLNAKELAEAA
Test: EMSA
Conditions: EMSA: 20 mM Tris pH 7.4, 4 mM MgCl2, 100 mM NaCl, 10% glycerol; 20 min at room temperature; 6% native PAGE with 5% glycerol in 0.5x TBE

How did the binding turn out when “AAATGCATCGCTCTCAGAATACCCAAAAATGAGCAATTCGATGCCATCGACTTTCGCGTTTCTGGCAACTTTGCGCGAACTGTAGAAAATACCGGATTACAGGTATTGTCCTGTCCAAGTCGCACAGCGTAAATTTCGCCTGACTTCCGTTGCGCAACCAACAGAAACACAAAGATT (double strand) [PT6SS1]” was run?
The binding was “binds”.

— article PMC10846153
